Series [1] concerns the target T1, Rrp4-exosome, Rrp4 KNK170ENQ (Sulfolobus solfataricus, UniProt Q9UXC4;Q9UXC2;Q9UXC0 1-249;1-248;1-275, M1S;M3S;K170E;K172Q).
T1 sequence 1: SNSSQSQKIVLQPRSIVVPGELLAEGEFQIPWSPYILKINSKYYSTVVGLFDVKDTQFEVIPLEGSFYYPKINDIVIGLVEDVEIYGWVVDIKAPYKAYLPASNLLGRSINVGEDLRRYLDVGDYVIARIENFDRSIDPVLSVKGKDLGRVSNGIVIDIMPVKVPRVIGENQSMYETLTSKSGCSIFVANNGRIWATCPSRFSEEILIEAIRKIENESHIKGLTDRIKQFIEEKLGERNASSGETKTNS
T1 sequence 2: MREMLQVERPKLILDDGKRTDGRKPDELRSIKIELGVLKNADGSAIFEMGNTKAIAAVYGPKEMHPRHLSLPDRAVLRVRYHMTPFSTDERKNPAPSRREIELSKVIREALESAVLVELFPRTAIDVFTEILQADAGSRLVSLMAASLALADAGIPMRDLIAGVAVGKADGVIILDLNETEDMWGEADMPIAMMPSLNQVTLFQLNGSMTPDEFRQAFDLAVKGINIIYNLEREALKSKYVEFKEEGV
T1 sequence 3: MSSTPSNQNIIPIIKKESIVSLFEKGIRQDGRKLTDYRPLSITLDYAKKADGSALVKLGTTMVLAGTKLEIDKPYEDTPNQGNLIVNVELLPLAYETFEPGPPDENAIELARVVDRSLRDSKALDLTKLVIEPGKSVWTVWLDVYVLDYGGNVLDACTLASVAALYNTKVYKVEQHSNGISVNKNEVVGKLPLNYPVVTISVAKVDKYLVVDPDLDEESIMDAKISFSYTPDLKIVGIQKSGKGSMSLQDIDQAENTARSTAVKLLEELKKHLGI
Put plainly: NMR line-shape titration.

Series [2] deals with T2, Rrp4-exosome, Rrp4 3MS N171M (Sulfolobus solfataricus, UniProt Q9UXC4;Q9UXC2;Q9UXC0 1-249;1-248;1-275, M1S;M3S;N171M).
T2 sequence 1: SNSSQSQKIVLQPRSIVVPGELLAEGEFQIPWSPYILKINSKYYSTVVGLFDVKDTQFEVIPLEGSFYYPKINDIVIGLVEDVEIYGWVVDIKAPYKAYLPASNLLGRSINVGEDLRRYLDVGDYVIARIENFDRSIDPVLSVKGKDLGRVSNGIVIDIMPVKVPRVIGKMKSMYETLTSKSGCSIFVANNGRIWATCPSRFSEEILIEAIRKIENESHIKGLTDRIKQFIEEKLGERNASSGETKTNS
T2 sequence 2: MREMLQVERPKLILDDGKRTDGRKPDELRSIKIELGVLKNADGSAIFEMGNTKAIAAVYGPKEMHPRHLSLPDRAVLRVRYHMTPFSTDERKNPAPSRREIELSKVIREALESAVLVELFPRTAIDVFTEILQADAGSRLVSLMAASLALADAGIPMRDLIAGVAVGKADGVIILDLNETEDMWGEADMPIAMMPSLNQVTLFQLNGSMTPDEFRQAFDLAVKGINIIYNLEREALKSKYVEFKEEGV
T2 sequence 3: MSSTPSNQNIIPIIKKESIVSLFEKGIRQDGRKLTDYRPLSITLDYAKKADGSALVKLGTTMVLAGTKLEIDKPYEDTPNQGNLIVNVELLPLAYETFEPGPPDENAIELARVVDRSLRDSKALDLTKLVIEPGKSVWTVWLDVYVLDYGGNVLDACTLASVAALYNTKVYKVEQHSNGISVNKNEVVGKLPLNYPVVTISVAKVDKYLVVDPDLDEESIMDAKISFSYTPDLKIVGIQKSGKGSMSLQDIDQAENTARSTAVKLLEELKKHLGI
Briefly: NMR methyl TROSY CSP.

For series [3], the target named is T3, Rrp4-exosome, Rrp4 3MS K38M (Sulfolobus solfataricus, UniProt Q9UXC4;Q9UXC2;Q9UXC0 1-249;1-248;1-275, M1S;M3S;K38M).
T3 sequence 1: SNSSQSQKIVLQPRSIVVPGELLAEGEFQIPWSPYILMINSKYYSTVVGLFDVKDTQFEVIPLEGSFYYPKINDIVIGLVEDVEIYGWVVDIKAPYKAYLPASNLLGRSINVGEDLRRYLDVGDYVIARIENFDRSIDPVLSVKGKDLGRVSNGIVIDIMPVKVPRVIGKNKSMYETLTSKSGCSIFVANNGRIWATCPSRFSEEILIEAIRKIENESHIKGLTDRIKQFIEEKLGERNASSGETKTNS
T3 sequence 2: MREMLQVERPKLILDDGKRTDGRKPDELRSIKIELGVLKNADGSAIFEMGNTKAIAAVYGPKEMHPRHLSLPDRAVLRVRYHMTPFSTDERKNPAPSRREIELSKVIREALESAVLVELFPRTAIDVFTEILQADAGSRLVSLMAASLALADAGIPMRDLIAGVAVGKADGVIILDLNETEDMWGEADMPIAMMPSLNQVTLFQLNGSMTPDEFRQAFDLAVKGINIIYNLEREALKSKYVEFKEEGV
T3 sequence 3: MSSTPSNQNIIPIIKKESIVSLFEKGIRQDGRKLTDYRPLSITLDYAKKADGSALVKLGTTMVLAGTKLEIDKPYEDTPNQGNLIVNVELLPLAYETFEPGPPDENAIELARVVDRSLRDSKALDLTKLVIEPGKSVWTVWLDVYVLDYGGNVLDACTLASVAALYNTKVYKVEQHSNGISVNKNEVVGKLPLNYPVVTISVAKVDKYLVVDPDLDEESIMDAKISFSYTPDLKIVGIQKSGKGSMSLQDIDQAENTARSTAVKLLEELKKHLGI
Briefly: NMR methyl TROSY CSP.

Series [4] has as its target T4, Rrp4-exosome WT (Sulfolobus solfataricus, UniProt Q9UXC4;Q9UXC2;Q9UXC0 1-249;1-248;1-275).
T4 sequence 1: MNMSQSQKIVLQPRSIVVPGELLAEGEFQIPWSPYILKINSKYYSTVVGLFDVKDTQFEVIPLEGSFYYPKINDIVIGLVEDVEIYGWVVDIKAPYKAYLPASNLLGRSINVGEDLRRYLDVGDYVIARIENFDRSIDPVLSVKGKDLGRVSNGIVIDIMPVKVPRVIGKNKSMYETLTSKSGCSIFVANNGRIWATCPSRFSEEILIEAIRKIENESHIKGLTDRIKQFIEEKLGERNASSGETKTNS
T4 sequence 2: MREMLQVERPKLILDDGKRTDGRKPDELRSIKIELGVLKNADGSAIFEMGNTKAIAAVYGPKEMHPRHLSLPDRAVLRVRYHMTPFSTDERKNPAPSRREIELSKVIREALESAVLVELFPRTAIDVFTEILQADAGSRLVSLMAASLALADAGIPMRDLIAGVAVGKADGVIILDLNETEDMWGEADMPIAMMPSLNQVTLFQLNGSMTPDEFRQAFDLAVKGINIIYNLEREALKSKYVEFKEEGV
T4 sequence 3: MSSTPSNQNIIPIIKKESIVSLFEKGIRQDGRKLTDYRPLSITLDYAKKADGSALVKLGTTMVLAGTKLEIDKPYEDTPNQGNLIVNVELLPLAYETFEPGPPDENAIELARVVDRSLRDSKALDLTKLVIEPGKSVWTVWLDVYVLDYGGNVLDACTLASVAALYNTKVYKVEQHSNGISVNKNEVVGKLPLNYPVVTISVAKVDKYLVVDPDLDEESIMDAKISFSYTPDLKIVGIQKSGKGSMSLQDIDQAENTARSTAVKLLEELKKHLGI
Briefly: fluorescence anisotropy. (In fluorescence polarisation assays a small probe gives low polarisation when free and higher when bound to something large.)

For series [5], the target named is T5, Sulfolobus solfataricus Rrp41-Rrp42 exosome core (Sulfolobus solfataricus, UniProt Q9UXC2 1-248; Q9UXC0 1-275).
T5 sequence 1: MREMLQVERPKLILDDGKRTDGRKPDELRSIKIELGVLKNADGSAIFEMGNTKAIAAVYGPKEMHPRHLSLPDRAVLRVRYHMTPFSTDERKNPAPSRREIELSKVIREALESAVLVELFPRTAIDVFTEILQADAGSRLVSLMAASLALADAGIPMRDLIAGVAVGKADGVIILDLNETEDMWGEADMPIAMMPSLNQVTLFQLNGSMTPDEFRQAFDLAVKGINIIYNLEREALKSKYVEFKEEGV
T5 sequence 2: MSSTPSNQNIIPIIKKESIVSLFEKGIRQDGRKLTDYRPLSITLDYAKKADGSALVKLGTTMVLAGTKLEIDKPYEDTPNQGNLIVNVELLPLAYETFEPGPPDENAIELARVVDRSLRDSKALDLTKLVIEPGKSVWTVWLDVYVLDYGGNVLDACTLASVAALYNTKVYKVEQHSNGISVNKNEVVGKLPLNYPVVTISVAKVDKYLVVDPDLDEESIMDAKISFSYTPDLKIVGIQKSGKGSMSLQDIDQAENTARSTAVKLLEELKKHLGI
Briefly: pull-down.

The values below come from paper PMC5392361 (Nature chemical biology, 2017).

B1: NMR substrate RNA (hairpin-A32, cyclic phosphate) (structured_RNA)
RNA: GCCCCCCCCGAAAGGGGGGGGAAAAAAAAAAAAAAAAAAAAAAAAAAAAAAAA
modifications: 2'-3' cyclic phosphate at 3' end
The term Kd denotes a measure of binding affinity in units of concentration. Higher therefore signals a looser complex. Turning to B1, the affinity in series [1], expressed as Kd, was 60.5 ± 4.6 µM. Further, the binding result in series [2] and in series [3] was “binds” each time.

B2: long RNA (4-thio-U, fluorescein) (structured_RNA)
RNA: GCCCCCCCCGAAAGGGGGGGGAAAAAAAAAAAAAAAAAAAAAUAAAAAAAAAAAGCU
modifications: 4-thiouridine at the single U within the A tail (written U)
In turn, B2 registered a Kd in series [4] of 0.0675 ± 0.0227 µM.

B3: Sulfolobus solfataricus Rrp4 exosome cap protein (natural protein, UniProt Q9UXC4 1-249, looked up)
chain: MNMSQSQKIVLQPRSIVVPGELLAEGEFQIPWSPYILKINSKYYSTVVGLFDVKDTQFEVIPLEGSFYYPKINDIVIGLVEDVEIYGWVVDIKAPYKAYLPASNLLGRSINVGEDLRRYLDVGDYVIARIENFDRSIDPVLSVKGKDLGRVSNGIVIDIMPVKVPRVIGKNKSMYETLTSKSGCSIFVANNGRIWATCPSRFSEEILIEAIRKIENESHIKGLTDRIKQFIEEKLGERNASSGETKTNS
For B3, the binding result in series [5] was “binds”.
